Reference: PMC10208982, “Structural basis of catalytic activation in human splicing” (Nature, 2023)

Biological target: T1, PRP2(137–1022) (human, UniProt O60231 137-1022)
T1 construct: comprises the modelled NTD (pin, clip, hook) and the helicase core; The tag can be cleaved off with HRV-3C protease; also called recombinant PRP2; source: Sf9 or Hi5 insect cells, purified (Strep-Tactin, then SEC or Q Sepharose); also co-expressed with PPIL4 in Sf9, in lysate; not shown: Twin-StrepII, N-terminal, kept
T1 sequence (looked up): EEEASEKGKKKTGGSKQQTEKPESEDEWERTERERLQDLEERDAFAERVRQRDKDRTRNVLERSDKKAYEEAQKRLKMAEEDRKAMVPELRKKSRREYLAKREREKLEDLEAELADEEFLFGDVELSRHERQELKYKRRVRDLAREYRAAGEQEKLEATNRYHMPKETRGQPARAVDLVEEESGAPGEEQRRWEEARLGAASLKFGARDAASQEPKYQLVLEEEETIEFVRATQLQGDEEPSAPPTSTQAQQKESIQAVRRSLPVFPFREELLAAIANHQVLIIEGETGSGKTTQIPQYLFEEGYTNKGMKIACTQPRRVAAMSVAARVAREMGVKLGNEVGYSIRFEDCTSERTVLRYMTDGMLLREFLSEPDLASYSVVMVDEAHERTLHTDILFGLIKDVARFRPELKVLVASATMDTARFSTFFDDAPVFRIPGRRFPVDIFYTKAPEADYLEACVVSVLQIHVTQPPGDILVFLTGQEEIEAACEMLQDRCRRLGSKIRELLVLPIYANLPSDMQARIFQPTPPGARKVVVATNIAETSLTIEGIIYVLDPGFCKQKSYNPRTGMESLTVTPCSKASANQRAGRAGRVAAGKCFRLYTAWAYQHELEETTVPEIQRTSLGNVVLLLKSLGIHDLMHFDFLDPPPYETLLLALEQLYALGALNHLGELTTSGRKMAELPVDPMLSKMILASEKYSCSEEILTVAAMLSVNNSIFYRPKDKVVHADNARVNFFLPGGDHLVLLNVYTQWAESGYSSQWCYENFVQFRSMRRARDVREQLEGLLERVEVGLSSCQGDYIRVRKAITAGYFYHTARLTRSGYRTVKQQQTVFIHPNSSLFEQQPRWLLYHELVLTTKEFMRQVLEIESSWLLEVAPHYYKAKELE
Assay: SEC; around 30 μg PRP2(137–1022) mixed with a 5-fold excess of cofactor in 100 μl, 1 h on ice; Superdex 200 Increase 10/300 GL; 20 mM HEPES-KOH pH 7.5, 100 mM KCl, 1.5 mM MgCl2, 5% glycerol; fractions analysed by SDS-PAGE
Details: both partners purified

- binding result: binds
B1: GPKOW (natural protein, human, UniProt Q92917 1-476, looked up)
chain: MADSKEGVLPLTAASTAPISFGFTRTSARRRLADSGDGAGPSPEEKDFLKTVEGRELQSVKPQEAPKELVIPLIQNGHRRQPPARPPGPSTDTGALADGVVSQAVKELIAESKKSLEERENAGVDPTLAIPMIQKGCTPSGEGADSEPRAETVPEEANYEAVPVEAYGLAMLRGMGWKPGEGIGRTFNQVVKPRVNSLRPKGLGLGANLTEAQALTPTGPSRMPRPDEEQEKDKEDQPQGLVPGGAVVVLSGPHRGLYGKVEGLDPDNVRAMVRLAVGSRVVTVSEYYLRPVSQQEFDKNTLDLRQQNGTASSRKTLWNQELYIQQDNSERKRKHLPDRQDGPAAKSEKAAPRSQHWLHRDLRVRFVDNMYKGGQYYNTKMIIEDVLSPDTCVCRTDEGRVLEGLREDMLETLVPKAEGDRVMVVLGPQTGRVGHLLSRDRARSRALVQLPRENQVVELHYDAICQYMGPSDTDDD
notes: human GPKOW, codon-optimized synthetic gene (GeneArt); also called PRP2 cofactor GPKOW; source: Sf9 or Hi5 insect cells, purified (Strep-Tactin, SEC); not shown: Twin-StrepII, N-terminal, kept
